For five substances, other: bond lifetime results are on record in paper PMC10163261.

One experiment addresses 3.L2 TCR. In words: bond lifetime vs force measurement (method not named for this panel). The following applies: solid fitted curve (TCR-pMHC-II model) read at force = 10 pN; TCR on CD4-CD8+ naive T cells; parent: est. 2.3; read off a plot.
The next experiment deals with K5:I-E^k (UniProt P04230). In words: BFP force-dependent bond lifetime measurement. Particulars: solid fitted curve (TCR-pMHC-II model) read at force = 10 pN; TCR on hybridomas; parent: est. 1.6; read off a plot.
UniProt P04230, sequence (P04230 whole entry, looked up): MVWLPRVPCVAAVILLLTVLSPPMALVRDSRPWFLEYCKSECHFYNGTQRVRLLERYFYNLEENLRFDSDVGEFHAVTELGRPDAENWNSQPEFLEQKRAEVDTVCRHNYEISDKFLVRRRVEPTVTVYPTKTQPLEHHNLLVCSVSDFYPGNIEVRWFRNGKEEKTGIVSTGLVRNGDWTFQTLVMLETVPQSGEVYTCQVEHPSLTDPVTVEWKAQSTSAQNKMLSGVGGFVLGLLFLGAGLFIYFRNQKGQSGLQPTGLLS

With Hb:I-Ek T72, in the experiment with 3.L2 TCR, the other: bond lifetime amounted to 1.1 s. On to “hybrid 2B4 TCR with its mouse Vαβ fused with the Cαβ of the human LC13 (WT) (from UniProt P01848) β:G182A; β:K183A”, for which, in the experiment with K5:I-E^k, the other: bond lifetime was found to be 1.3 s. Consider “hybrid 2B4 TCR with its mouse Vαβ fused with the Cαβ of the human LC13 (WT) (from UniProt P01848) β:H221A; β:N222A”, for which the other: bond lifetime with K5:I-E^k is 0.38 s. For “hybrid 2B4 TCR with its mouse Vαβ fused with the Cαβ of the human LC13 (WT) (from UniProt P01848) β:N222A; β:P223A”, the other: bond lifetime with K5:I-E^k worked out at 2.2 s. As for “hybrid 2B4 TCR with its mouse Vαβ fused with the Cαβ of the human LC13 (WT) (from UniProt P01848) β:N225A; β:H226A”, the other: bond lifetime with K5:I-E^k was 0.15 s.
